Experimental data from article PMC11257959.

System: NG-RYBP R47A/R53A/R56A (Homo sapiens)
Test: EMSA
Conditions: apparent Kd, n=3; value assigned by fourfold loss; H2A K119 monoubiquitinated histone; DNA unmodified; EMSA: 25 mM Tris-HCl pH 7.5, 50 mM NaCl, 0.05% Tween 20, 5 mM MgCl2, 4% glycerol, 0.2 nM nucleosome, 10 min on ice, 1% agarose 0.4x TBE; cryo-EM binding: 50 mM …

## NucH2Aub1 (EMSA, 201 bp 601)
  Kd: 0.01 µM
